Measurements taken from US10239925B2, “Peptides and combination of peptides for use in immunotherapy against ovarian cancer and other cancers” (IMMATICS BIOTECHNOLOGIES GMBH, priority 2015, dated 2019).

Target: HLA-A*02:01 (Homo sapiens, UniProt P04439, D140Y/D185E/D98H/E176V/E277Q/G131W/G231S/I119V/I121R/I166T/I218V/L300P/L318F/N151K/N90K/P208A/P217A/Q86G/Q94H/R138H/R169H/T345S)
Experiment: MHC binding assay (UV-ligand exchange, anti-β2m ELISA, peptide exchange yield)
Settings: binding to HLA-A*02:01
Excerpt: Candidate peptides for T cell based therapies according to the present invention were further tested for their MHC binding capacity (affinity). The individual peptide-MHC complexes were produced by UV-ligand exchange, where a UV-sensitive peptide is cleaved upon UV-irradiation, and exchanged with the peptide of interest as analyzed. Only peptide candidates that can effectively bind and stabilize the peptide-receptive MHC molecules prevent dissociation of the MHC complexes. To determine the yield of the exchange reaction, an ELISA was performed based on the detection of the light chain (β2m) of stabilized MHC complexes. The assay was performed as generally described in Rodenko et al. (Rodenko et al., 2006).
96 well MAXISorp plates (NUNC) were coated over night with 2 ug/ml streptavidin in PBS at room temperature, washed 4× and blocked for 1h at 37° C. in 2% BSA containing blocking buffer. […] Peptide-MHC monomers of the UV-exchange reaction were diluted 100 fold in blocking buffer. Samples were incubated for 1 h at 37° C., washed four times, incubated with 2 ug/ml HRP conjugated anti-β2m for 1h at 37° C., washed again and detected with TMB solution that is stopped with […]. Absorption was measured at 450 nm. Candidate peptides that show a high exchange yield (preferably higher than 50%, most preferred higher than 75%) are generally preferred for a generation and production of antibodies or fragments thereof, and/or T cell receptors or fragments thereof, as they show sufficient avidity to the MHC molecules and prevent dissociation of the MHC complexes.

Peptide exchange (MHC class I binding score, peptide exchange yield)	Substance
“+++” (>50 = +++)	139 (SVMEVNSGIYRV; listed as Homo sapiens) [compound 139]
“++” (>20% = ++)	140 (YMDAPKAAL; listed as Homo sapiens) [compound 140]
“+++” (>50 = +++)	142 (FLFATPVFI; listed as Homo sapiens) [compound 142]
“+++” (>50 = +++)	144 (YIMEPSIFNTL; listed as Homo sapiens) [compound 144]
“++” (>20% = ++)	145 (FLATSGTLAGI; listed as Homo sapiens) [compound 145]
“++” (>20% = ++)	146 (SLATAGDGLIEL; listed as Homo sapiens) [compound 146]
“+++” (>50 = +++)	147 (SLLEAVSFL; listed as Homo sapiens) [compound 147]
“++” (>20% = ++)	148 (ALNPEIVSV; listed as Homo sapiens) [compound 148]
“+++” (>50 = +++)	149 (NLLELFVQL; listed as Homo sapiens) [compound 149]
“+++” (>50 = +++)	151 (KILQQLVTL; listed as Homo sapiens) [compound 151]
“+” (>10% = +)	153 (FLIANVLYL; listed as Homo sapiens) [compound 153]
“++” (>20% = ++)	154 (ALDDGTPAL; listed as Homo sapiens) [compound 154]
“+++” (>50 = +++)	155 (RVANLHFPSV; listed as Homo sapiens) [compound 155]
“+++” (>50 = +++)	158 (KLFDVDEDGYI; listed as Homo sapiens) [compound 158]
“++++” (>75% = ++++)	159 (GLVGNPLPSV; listed as Homo sapiens) [compound 159]
“+++” (>50 = +++)	160 (FLFDEEIEQI; listed as Homo sapiens) [compound 160]
“+++” (>50 = +++)	161 (ALLEGVNTV; listed as Homo sapiens) [compound 161]
“+++” (>50 = +++)	162 (YQQAQVPSV; listed as Homo sapiens) [compound 162]
“+++” (>50 = +++)	163 (ALDEMGDLLQL; listed as Homo sapiens) [compound 163]
“+++” (>50 = +++)	164 (ALLPQPKNLTV; listed as Homo sapiens) [compound 164]
“+++” (>50 = +++)	165 (SLLDEIRAV; listed as Homo sapiens) [compound 165]

Peptide exchange (MHC class I binding score, peptide exchange yield)	Substance
“+++” (>50 = +++)	167 (KVLEVTEEFGV; listed as Homo sapiens) [compound 167]
“++++” (>75% = ++++)	168 (KILDADIQL; listed as Homo sapiens) [compound 168]
“+++” (>50 = +++)	169 (NLPEYLPFV; listed as Homo sapiens) [compound 169]
“+++” (>50 = +++)	170 (RLQETLSAA; listed as Homo sapiens) [compound 170]
“+++” (>50 = +++)	171 (LLLPLQILL; listed as Homo sapiens) [compound 171]
“++” (>20% = ++)	172 (VLYSYTIITV; listed as Homo sapiens) [compound 172]
“+++” (>50 = +++)	173 (LLDSASAGLYL; listed as Homo sapiens) [compound 173]
“+++” (>50 = +++)	174 (ALAQYLITA; listed as Homo sapiens) [compound 174]
“+++” (>50 = +++)	175 (YLFENISQL; listed as Homo sapiens) [compound 175]
“++” (>20% = ++)	176 (YLMEGSYNKVFL; listed as Homo sapiens) [compound 176]
“++++” (>75% = ++++)	177 (YLLPEEYTSTL; listed as Homo sapiens) [compound 177]
“++++” (>75% = ++++)	178 (ALTEIAFVV; listed as Homo sapiens) [compound 178]
“+++” (>50 = +++)	179 (KVLNELYTV; listed as Homo sapiens) [compound 179]
“++” (>20% = ++)	180 (FQIDPHSGLVTV; listed as Homo sapiens) [compound 180]
“+++” (>50 = +++)	181 (LLWAGTAFQV; listed as Homo sapiens) [compound 181]
“+++” (>50 = +++)	182 (MLLEAPGIFL; listed as Homo sapiens) [compound 182]
“+++” (>50 = +++)	183 (FGLDLVTEL; listed as Homo sapiens) [compound 183]
“+++” (>50 = +++)	184 (YLMDINGKMWL; listed as Homo sapiens) [compound 184]
“++” (>20% = ++)	185 (FLIDDKGYTL; listed as Homo sapiens) [compound 185]
“++” (>20% = ++)	186 (TLFFQQNAL; listed as Homo sapiens) [compound 186]
“+++” (>50 = +++)	187 (RQISIRGIVGV; listed as Homo sapiens) [compound 187]

Peptide exchange (MHC class I binding score, peptide exchange yield)	Substance
“+++” (>50 = +++)	188 (GLFPVTPEAV; listed as Homo sapiens) [compound 188]
“+++” (>50 = +++)	189 (ALQRKLPYV; listed as Homo sapiens) [compound 189]
“+++” (>50 = +++)	190 (FLSSLTETI; listed as Homo sapiens) [compound 190]
“+++” (>50 = +++)	192 (KMLDGASFTL; listed as Homo sapiens) [compound 192]
“+++” (>50 = +++)	193 (QLLDADGFLNV; listed as Homo sapiens) [compound 193]
“+++” (>50 = +++)	194 (ALPLFVITV; listed as Homo sapiens) [compound 194]
“+++” (>50 = +++)	195 (GLFADLLPRL; listed as Homo sapiens) [compound 195]
“++++” (>75% = ++++)	196 (YLYSVEIKL; listed as Homo sapiens) [compound 196]
“++” (>20% = ++)	197 (ALGPEGGRV; listed as Homo sapiens) [compound 197]
“+++” (>50 = +++)	200 (LLFGSVQEV; listed as Homo sapiens) [compound 200]
“+++” (>50 = +++)	201 (RLVDYLEGI; listed as Homo sapiens) [compound 201]
“+++” (>50 = +++)	202 (ALLDQQGSRWTL; listed as Homo sapiens) [compound 202]
“++” (>20% = ++)	204 (KIAENVEEV; listed as Homo sapiens) [compound 204]
“+++” (>50 = +++)	205 (SLYPGTETMGL; listed as Homo sapiens) [compound 205]
“+++” (>50 = +++)	206 (VLQEGKLQKLAQL; listed as Homo sapiens) [compound 206]
“++” (>20% = ++)	207 (GLTSTNAEV; listed as Homo sapiens) [compound 207]
“+++” (>50 = +++)	208 (KISPVTFSV; listed as Homo sapiens) [compound 208]
“++” (>20% = ++)	209 (KLIESKHEV; listed as Homo sapiens) [compound 209]
“++” (>20% = ++)	210 (LLLNAVLTV; listed as Homo sapiens) [compound 210]
